For assay [1], the target named is T1, recombinant human IL-2 receptor beta containing a His-tag and Avi-tag (human, UniProt P14784 27-239).
T1 construct: Bought; attached to the SAX2 biosensor; also called CD122; IL-2R β; not shown: His-tag and Avi-tag
T1 sequence (looked up): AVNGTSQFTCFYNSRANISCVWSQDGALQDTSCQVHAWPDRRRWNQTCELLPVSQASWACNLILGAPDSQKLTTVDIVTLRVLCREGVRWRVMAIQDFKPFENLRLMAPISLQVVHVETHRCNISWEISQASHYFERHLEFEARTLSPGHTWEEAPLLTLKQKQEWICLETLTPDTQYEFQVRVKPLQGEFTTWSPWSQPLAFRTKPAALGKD
The experiment in a line: BLI (Octet R8), receptor on SAX2 sensor; construct CMP-328, not MMP2-treated. As to the method: (§1) Bilayer interferometry (BLI) assays were used to measure the binding constants between activatable IL-2 polypeptides (and activated versions thereof) to IL-2 receptor subunits or receptor complexes. BLI assays were conducted on an Octet® R8 instrument. Assay plates were 96 well, polypropylene, F-bottom (chimney well), black microplates (Greiner Bio-one, Cat. No: 655209). The biosensors were Octet® SAX2 (Sartorius, Cat. No: 18-5136). The assay buffer was 1X Kinetic Buffer (Sartorius, Cat. no: 18-5136) or Phosphate Buffered Saline (PBS) that contained 0.02% (v: v) Tween 20 (Polysorbate 20) and 0.1% (w/v) bovine serum albumin (BSA). The sensor was regenerated between measurements in 10 mM glycine pH 2.7 buffer.
(§2) Sensor attached receptors were either recombinant human IL-2 receptor beta containing a His-tag and Avi-tag™ (R&D Systems™) or an Avi-tag™ Fc with human IL-2R beta and IL-2R gamma attached (Acrobiosystems Cat. no: ACRB-ILG-H₈₂F3-25UG). Receptors were reconstituted from lyophilized powder to 500 μg/ml in PBS. Analytes were diluted in Kinetic buffer to 300 nM, then serially diluted to lower concentrations.

Assay [2] addresses T2, Avi-tag Fc with human IL-2R beta and IL-2R gamma attached (Acrobiosystems ACRB-ILG-H82F3-25UG) (human, UniProt P14784 27-239; P31785 23-262).
T2 construct: Bought; attached to the SAX2 biosensor; also called CD122 CD132; IL-2R βγ; not shown: Fc and Avi-tag
T2 sequence (looked up) 1: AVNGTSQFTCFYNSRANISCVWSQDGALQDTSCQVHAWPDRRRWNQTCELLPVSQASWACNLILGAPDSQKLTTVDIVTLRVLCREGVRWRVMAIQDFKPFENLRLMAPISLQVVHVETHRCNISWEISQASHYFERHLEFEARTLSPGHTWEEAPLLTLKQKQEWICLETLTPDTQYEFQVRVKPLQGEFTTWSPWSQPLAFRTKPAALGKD
T2 sequence (looked up) 2: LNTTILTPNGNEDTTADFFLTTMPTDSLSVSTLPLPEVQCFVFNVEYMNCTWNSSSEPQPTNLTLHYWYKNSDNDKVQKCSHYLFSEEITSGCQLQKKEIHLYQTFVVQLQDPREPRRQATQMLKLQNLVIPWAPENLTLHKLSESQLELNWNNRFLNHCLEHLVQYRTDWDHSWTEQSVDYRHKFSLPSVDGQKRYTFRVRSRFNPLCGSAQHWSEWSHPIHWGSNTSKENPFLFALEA
The experiment in a line: BLI (Octet R8), receptor on SAX2 sensor. In short, it runs like this:
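Receptor immobilized on SAX2 biosensors; analytes (intact or MMP2-cleaved activatable IL-2 constructs) started at 300 nM and serially diluted in Kinetic buffer or PBS with 0.02% Tween 20 and 0.1% BSA. Binding constants measured by biolayer interferometry; sensors regenerated with 10 mM glycine pH 2.7 between runs.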
Background: Biolayer interferometry detects binding as a change in optical thickness at a sensor tip.

Assay [3] addresses T2, Avi-tag Fc with human IL-2R beta and …. The experiment in a line: BLI (Octet R8), receptor on SAX2 sensor; construct CMP-313, not MMP2-treated. As to the method: as §1, §2
The target in assay [4] is T1, recombinant human IL-2 receptor beta …. The assay is described as above. As to the method: as §1, §2

This note sets out measurements from patent US20240376170A1 (BRIGHT PEAK THERAPEUTICS, published 2024).

Bridges are numbered along the chain shown (N, C = ends). Primed or numbered codes have the meaning given here. [ ]: non-standard residue; d: D form. Ygp(4) = Tyr with amino-capped PEG8 (O-(8x polyethylene glycol-amino)-tyrosine); Yn3(4) = Tyr with azide-capped PEG9 (O-(9x polyethylene glycol-azido)-tyrosine); Ygp = O-(8x polyethylene glycol-amino)-tyrosine (Tyr, amino-capped PEG8); Yn3 = O-(9x polyethylene glycol-azido)-tyrosine (Tyr, azide-capped PEG9); hSer = N[C@@H](CCO)C(=O)O; Nle = CCCC[C@H](N)C(=O)O

B1: CMP-328 (ligand)
chain: APTSSSTKKTQLQLEHLLLDLQEILNGINNYKNPKLTR[Nle]L[hSer][Yn3]KF[Ygp][Nle]PKKATELKHLQCLEEELKPLEEVL[hSer]LAQSKNFHLRPRDLISNINVIVLELKGSETTF[hSer]CEYADETATIVEFLNRWITFSQSIISTLT
modifications: bridge 9-23; not fully specified (bridges)
notes: Synthetic IL-2 polypeptide, tested intact
As usually defined, the Kd is the free concentration of one partner at which half of the binding sites on the other are occupied at equilibrium, for simple one-to-one binding. One may read the koff as the rate constant with which the complex falls apart. With B1, in assay [1], the Kd stood at 0.034 nM. For the same molecule, in assay [2], the off-rate constant (koff) came out at 0.00194 s⁻¹.

B2: CMP-313 (ligand)
chain: APTSSSTKKTQLQLEHLLLDLQKILNGINNYKNPKLTR[Nle]L[hSer][Yn3(4)]KF[Ygp(4)][Nle]PKKATELKHLQCLEEELKPLEEVL[hSer]LAQSKNFHLRPRDLISNINVIVLELKGSETTF[hSer]CEYADETATIVEFLNRWITFSQSIISTLT
modifications: not fully specified; ends and bridges not checked; also: Lys23 side chain carries an attached cleavable peptide moiety (structure only in drawing)
notes: as for B1
Consider B2, for which the Kd turned out to be 3.4 nM in assay [3] and 163 nM in assay [4]. In assay [2], the koff is 0.00148 s⁻¹.
